{"source": "paper PMC11538695", "about": "(Advanced Science, 2024)", "conditions_in_all_cases": "both partners purified", "key": {"[1]": {"target": "T1, full-length human P97/VCP (Valosin-Containing Protein) (human, UniProt P55072 1-806)", "T1 construct": "P97/VCP (valosin-containing protein), human, full length; Cloned into pRSF-32 M (N-terminal thioredoxin and 6xHis) or pET-28a; source: E. coli BL21 (DE3), purified (Ni-NTA, size exclusion chromatography)", "assay": "pull-down; MBP pull-down, SNARE complex held by MBP-syntaxin5; P97/VCP-P47 without or with VCPIP1 WT or Y623E/F638E added (VCPIP1 WT enhanced, the double mutant did not)"}, "[2]": {"target": "T2, Syntaxin5 (STX5) contained SNARE complex (syntaxin-5, GOSR1, Ykt6, Bet1, without transmembrane domains) (human, UniProt Q13190 55-330; O95249 150-230; O15498 1-193; O15155 1-93)", "T2 construct": "syntaxin-5, human, residues 55-330; GosR1, human, residues 150-230; Ykt6, human, residues 1-193; Bet1, human, residues 1-93; also called intact SNARE complex; SNARE substrate; source: E. coli BL21 (DE3), pellets mixed and lysed together, purified (amylose resin, size exclusion chromatography); not shown: MBP, N-terminal, kept; copies: + + +", "T2 sequence (looked up) 1": "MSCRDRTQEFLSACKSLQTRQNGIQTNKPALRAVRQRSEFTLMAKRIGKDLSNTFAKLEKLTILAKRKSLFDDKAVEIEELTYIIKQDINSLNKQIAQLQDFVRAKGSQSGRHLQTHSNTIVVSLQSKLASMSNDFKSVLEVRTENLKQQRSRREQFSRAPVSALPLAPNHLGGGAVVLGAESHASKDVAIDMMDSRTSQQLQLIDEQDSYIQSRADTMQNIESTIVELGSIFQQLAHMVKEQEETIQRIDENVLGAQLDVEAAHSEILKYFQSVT", "T2 sequence (looked up) 2": "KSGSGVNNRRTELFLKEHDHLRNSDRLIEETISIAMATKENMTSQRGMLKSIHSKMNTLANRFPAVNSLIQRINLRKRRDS", "T2 sequence (looked up) 3": "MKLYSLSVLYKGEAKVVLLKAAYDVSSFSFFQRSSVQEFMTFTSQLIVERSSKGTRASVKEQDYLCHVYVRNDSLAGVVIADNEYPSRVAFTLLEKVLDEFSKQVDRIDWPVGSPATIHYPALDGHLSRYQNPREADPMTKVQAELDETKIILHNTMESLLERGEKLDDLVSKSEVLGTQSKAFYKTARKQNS", "T2 sequence (looked up) 4": "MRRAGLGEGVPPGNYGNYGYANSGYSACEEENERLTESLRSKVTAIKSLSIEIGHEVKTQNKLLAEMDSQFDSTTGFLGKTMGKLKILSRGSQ", "assay": "pull-down; MBP pull-down, SNARE complex held by MBP-syntaxin5; P97/VCP-P47 without or with VCPIP1 WT or Y623E/F638E added (VCPIP1 WT enhanced, the double mutant did not)"}, "[3]": {"target": "T3, N-terminal region of VCPIP1 (residues 40-464) (human, UniProt Q96JH7 40-464)", "T3 construct": "VCPIP1, human, N-terminal region with the OTU domain, residues 40-464; also called N-terminal OTU domain (residues 40-464); source: E. coli BL21 (DE3) (said of the recombinant proteins in general), purified", "T3 sequence (looked up)": "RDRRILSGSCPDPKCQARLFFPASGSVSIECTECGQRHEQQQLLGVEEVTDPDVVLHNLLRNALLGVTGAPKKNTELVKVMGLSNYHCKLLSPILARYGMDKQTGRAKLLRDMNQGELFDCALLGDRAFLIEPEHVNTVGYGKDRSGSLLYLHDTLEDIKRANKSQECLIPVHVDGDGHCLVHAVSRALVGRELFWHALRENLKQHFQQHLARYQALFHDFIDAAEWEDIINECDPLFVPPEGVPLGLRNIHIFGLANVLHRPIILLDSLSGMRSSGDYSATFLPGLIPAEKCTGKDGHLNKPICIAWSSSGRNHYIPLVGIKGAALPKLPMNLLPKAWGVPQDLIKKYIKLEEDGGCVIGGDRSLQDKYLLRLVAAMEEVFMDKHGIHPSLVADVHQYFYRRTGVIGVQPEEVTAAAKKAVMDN", "assay": "SEC; gel filtration co-migration of purified fragments, fractions on SDS-PAGE with Coomassie staining"}, "[4]": {"target": "T1, full-length human P97/VCP …", "assay": "pull-down; 50 µg GST-tagged VCPIP1 protein held on glutathione Sepharose 4B, full-length P97/VCP at molar ratio 1:3; 20 mM Tris pH 7.5, 100 mM NaCl, 1 mM DTT; Coomassie staining"}}}
{"binder": "full-length human P47 (natural protein, UniProt Q9UNZ2 1-370, looked up, P47 (adaptor of P97/VCP), human, full length; Cloned into pRSF-32 M or pET-28a; source: E. coli BL21 (DE3), purified (Ni-NTA, size exclusion chromatography)) MAAERQEALREFVAVTGAEEDRARFFLESAGWDLQIALASFYEDGGDEDIVTISQATPSSVSRGTAPSDNRVTSFRDLIHDQDEDEEEEEGQRFYAGGSERSGQQIVGPPRKKSPNELVDDLFKGAKEHGAVAVERVTKSPGETSKPRPFAGGGYRLGAAPEEESAYVAGEKRQHSSQDVHVVLKLWKSGFSLDNGELRSYQDPSNAQFLESIRRGEVPAELRRLAHGGQVNLDMEDHRDEDFVKPKGAFKAFTGEGQKLGSTAPQVLSTSSPAQQAENEAKASSSILIDESEPTTNIQIRLADGGRLVQKFNHSHRISDIRLFIVDARPAMAATSFILMTTFPNKELADESQTLKEANLLNAVIVQRLT", "values": [{"measurement": "binding result", "setting": "[1]", "value": "binds"}, {"measurement": "binding result", "setting": "[2]", "value": "binds"}]}
{"binder": "SRGFGSFRFPSGNQGGAGPSQGSGGGTGGSVYTEDNDDDLYG (domain or fragment, human, UniProt P55072 765-806, looked up, P97/VCP, human, C-terminal tail, residues 765-806; also called P97/VCP tail; source: E. coli BL21 (DE3) (said of the recombinant proteins in general), purified)", "note": "[C-terminal tail of P97/VCP (residues 765-806)]", "values": [{"measurement": "binding result", "setting": "[3]", "value": "binds"}]}
{"binder": "GST-VCPIP1 F1 fragment (IDR1-OTU) (domain or fragment, human, UniProt Q96JH7 1-464, looked up, VCPIP1, human, residues 1-464 (methods); the results print 1-465; pGEX-6P-1 vector; source: E. coli BL21 (DE3), purified (glutathione Sepharose 4B, size exclusion chromatography); not shown: GST, N-terminal, kept) MSQPPPPPPPLPPPPPPPEAPQTPSSLASAAASGGLLKRRDRRILSGSCPDPKCQARLFFPASGSVSIECTECGQRHEQQQLLGVEEVTDPDVVLHNLLRNALLGVTGAPKKNTELVKVMGLSNYHCKLLSPILARYGMDKQTGRAKLLRDMNQGELFDCALLGDRAFLIEPEHVNTVGYGKDRSGSLLYLHDTLEDIKRANKSQECLIPVHVDGDGHCLVHAVSRALVGRELFWHALRENLKQHFQQHLARYQALFHDFIDAAEWEDIINECDPLFVPPEGVPLGLRNIHIFGLANVLHRPIILLDSLSGMRSSGDYSATFLPGLIPAEKCTGKDGHLNKPICIAWSSSGRNHYIPLVGIKGAALPKLPMNLLPKAWGVPQDLIKKYIKLEEDGGCVIGGDRSLQDKYLLRLVAAMEEVFMDKHGIHPSLVADVHQYFYRRTGVIGVQPEEVTAAAKKAVMDN", "values": [{"measurement": "binding result", "setting": "[4]", "value": "binds"}]}
{"binder": "GST-VCPIP1 F3 fragment (IDR2-UBL-UFD2) (domain or fragment, human, UniProt Q96JH7 680-1000, looked up, VCPIP1, human, residues 680-1000; pGEX-6P-1 vector; source: E. coli BL21 (DE3), purified (glutathione Sepharose 4B, size exclusion chromatography); not shown: GST, N-terminal, kept) QGQESESQLPTKIILTGQKTKTLHKEELNMSKTERTIQQNITEQASVMQKRKTEKLKQEQKGQPRTVSPSTIRDGPSSAPATPTKAPYSPTTSKEKKIRITTNDGRQSMVTLKSSTTFFELQESIAREFNIPPYLQCIRYGFPPKELMPPQAGMEKEPVPLQHGDRITIEILKSKAEGGQSAAAHSAHTVKQEDIAVTGKLSSKELQEQAEKEMYSLCLLATLMGEDVWSYAKGLPHMFQQGGVFYSIMKKTMGMADGKHCTFPHLPGKTFVYNASEDRLELCVDAAGHFPIGPDVEDLVKEAVSQVRAEATTRSRESSPS", "values": [{"measurement": "binding result", "setting": "[4]", "value": "binds"}]}
